In patent publication US20260078190A1 (SYSTIMMUNE, published 2026):
Where two headings read alike, the source gives them in different places. Each block holds one binder with its values, some of them ahead of it.

Columns and labels:
[1] = target: T1, Her3 ECD (Sino Biological, 10201-H08H-10) (UniProt P21860 20-643); test: BLI (BLItz), same tip after the EGFR step; second step Her3 ECD 200 nM, 120 s association, 60 s dissociation
T1 construct: extracellular domain; Bought reagent; also called Her3 extracellular domain

[2] = target: T2, SI-2C1, dimeric EGFR ECD fused to rabbit Fc (UniProt P00533 25-645, limits assumed); test: ELISA, plate coated with dimeric EGFR ECD-rabbit Fc (SI-2C1) at 3 µg/mL, antibody from 10 µg/mL in 3x dilutions, goat anti-human IgG-HRP, OD 450 nm
T2 construct: extracellular domain; Made in house; also called dimeric EGFR ECD reagent; not shown: rabbit Fc

[3] = target: T1, Her3 ECD (Sino Biological, …); test: BLI (BLItz), same tip after the EGFR step; second step Her3 ECD 200 nM, 120 s association, 60 s dissociation; remark: listed apart in the source
[4] = target: T2, SI-2C1, dimeric EGFR ECD fused to …; test: ELISA, plate coated with dimeric EGFR ECD-rabbit Fc (SI-2C1) at 3 µg/mL, antibody from 50 µg/mL in 3x dilutions, goat anti-human IgG-HRP, OD 450 nm
[5] = target: T3, Extracellular domain (Met 1-Ser 645) of human EGFR with a C-terminal polyhistidine tag (human, UniProt P00533 25-645); test: BLI (Octet Red96), antibody on anti-human Fc sensor, curve fit at EGFR 33.3 nM
T3 construct: range 1-645; also called EGFR protein; EGFR ECD; not shown: C-terminal polyhistidine tag

[6] = target: T3, Extracellular domain (Met 1-Ser 645) of …; test: BLI (Octet Red96), antibody on anti-human Fc sensor, curve fit at EGFR 11.1 nM
[7] = target: T4, EGFR on A431 and FaDu tumor cells (UniProt P00533 25-1210, limits assumed); test: flow cytometry titration on tumour cells (Fadu by the legend paragraph 18, A431 by Example 7 paragraph 83), PE anti-human IgG-Fc, geometric MFI; the table's head prints 'IC50 (nM)', Example 7 calls the values EC50 of binding; bispecific EGFR x Her3 on cells that carry both, the anti-Her3 curve (SI-1C1) stays near the baseline
T4 construct: whole, on cells; the cells are native tumor lines, not transfectants

[8] = target: T4, EGFR on A431 and FaDu tumor cells; test: flow cytometry titration on tumour cells (A431 by the legend paragraph 19, FaDu by Example 7 paragraph 83), PE anti-human IgG-Fc, geometric MFI; the table's head prints 'IC50 (nM)', Example 7 calls the values EC50 of binding; bispecific EGFR x Her3 on cells that carry both, the anti-Her3 curve (SI-1C1) stays near the baseline
[9] = target: T3, Extracellular domain (Met 1-Ser 645) of …; test: BLI (Octet Red96), antibody on anti-human Fc sensor, curve fit at EGFR 100 nM
[10] = target: T3, Extracellular domain (Met 1-Ser 645) of …; test: BLI (Octet Red96), antibody on anti-human Fc sensor, curve fit at EGFR 300 nM
[11] = target: T5, Monomeric EGFR ECD (SI-2R4) (UniProt P00533 25-645, limits assumed); test: ELISA on coated monomeric EGFR ECD (SI-2R4), detection through Her3 ECD rabbit IgG1 (SI-1R1); antibody after 7 days in 95% human serum at 37 C; Day 7 at 37 C, 95% human serum
T5 construct: extracellular domain; Coated antigen of the serum stability ELISA

[12] = target: T5, Monomeric EGFR ECD (SI-2R4); test: ELISA on coated monomeric EGFR ECD (SI-2R4), detection through Her3 ECD rabbit IgG1 (SI-1R1); antibody in 95% human serum, Day 7 at 55 C (degradation condition)
[13] = target: T5, Monomeric EGFR ECD (SI-2R4); test: ELISA on coated monomeric EGFR ECD (SI-2R4, 3 µg/mL), antibody after 3 days at 37 °C in 95% human serum, column 'Day 3 (37°C)'; M follows from the text, which gives the neighbouring 4.293e-010 as 429.3 pM
[14] = target: T5, Monomeric EGFR ECD (SI-2R4); test: ELISA on coated monomeric EGFR ECD (SI-2R4), detection through Her3 ECD rabbit IgG1 (SI-1R1) and anti-rabbit IgG-HRP; antibody in 95% human serum, Day 0; Day 0, 95% human serum
[15] = target: T3, Extracellular domain (Met 1-Ser 645) of …; test: BLI (Octet Red96), antibody on anti-human Fc sensor, average of the four curve fits

binding result [1]: binds
EC50 (read off the curve) [2]: ~0.2 nM
B1: SI-1X1 (bispecific antibody, human IgG1, kappa)
heavy: not shown
light: QSALTQPASVSGSPGQSITISCTGTSSDVGGYNFVSWYQQHPGKAPKLMIYDVSDRPSGVSDRFSGSKSGNTASLIISGLQADDEADYYCSSYGSSSTHVIFGGGTKLTVLRTVAAPSVFIFPPSDEQLKSGTASVVCLLNNFYPREAKVQWKVDNALQSGNSQESVTEQDSKDSTYSLSSTLTLSKADYEKHKVYACEVTHQGLSSPVTKSFNRGEC
notes: Tetravalent: anti-HER3 IgG1 with anti-EGFR scFv on the heavy chain C-terminus (heavy chain entry holds IgG1 heavy chain, connector and scFv)

binding result [3]: binds
B2: SI-1X3 (bispecific antibody, human IgG1, kappa)
heavy: not shown
light: B1 light
notes: Tetravalent: anti-HER3 IgG1 with anti-EGFR (1C5) scFv on the heavy chain C-terminus

EC50 (read off the curve) [4]: ~5 nM
B3: SI-1C5 (antibody, human IgG1, kappa, V domains shown)
VH: QVQLQQSGAEVKKPGSSVKVSCKASGYTFTNYYIYWVRQAPGQGLEWIGGINPTSGGSNFNEKFKTRVTITVDESTNTAYMELSSLRSEDTAFYFCARQGLWFDSDGRGFDFWGQGSTVTVSS
VL: DIQMTQSPSSLSASVGDRVTITCRSSQNIVHSNGNTYLDWYQQTPGKAPKLLIYKVSNRFSGVPSRFSGSGSGTDFTFTISSLQPEDIATYYCFQYSHVPWTFGQGTKLQITR
notes: Monospecific anti-EGFR IgG1 kappa

binding result [1]: binds
EC50 (read off the curve) [2]: ~0.03 nM
B4: SI-1C4 (bispecific antibody, human IgG1, kappa, V domains shown)
VH: EVQLVESGGGLVQPGGSLRLSCAASGFTLSGDWIHWVRQAPGKGLEWVGEISAAGGYTDYADSVKGRFTISADTSKNTAYLQMNSLRAEDTAVYYCARESRVSFEAAMDYWGQGTLVTVSS
VL: DIQMTQSPSSLSASVGDRVTITCRASQNIATDVAWYQQKPGKAPKLLIYSASFLYSGVPSRFSGSGSGTDFTLTISSLQPEDFATYYCQQSEPEPYTFGQGTKVEIKR
notes: Control: two-in-one bispecific antibody against EGFR and HER3 (Schaefer et al. 2011 platform); also called IC4; benchmark antibody

binding result [3]: binds
EC50 (read off the curve) [4]: ~5 nM
B5: SI-1X4 (bispecific antibody, human IgG1, kappa)
heavy: not shown
light: DIQMTQSPSSLSASVGDRVTITCRSSQNIVHSNGNTYLDWYQQTPGKAPKLLIYKVSNRFSGVPSRFSGSGSGTDFTFTISSLQPEDIATYYCFQYSHVPWTFGQGTKLQITRTVAAPSVFIFPPSDEQLKSGTASVVCLLNNFYPREAKVQWKVDNALQSGNSQESVTEQDSKDSTYSLSSTLTLSKADYEKHKVYACEVTHQGLSSPVTKSFNRGEC
notes: Tetravalent: anti-EGFR (1C5) IgG1 with anti-HER3 scFv on the heavy chain C-terminus

Kd [5]: 9.44 nM
koff [5]: 0.00149 s⁻¹
kon [5]: 158000 M⁻¹ s⁻¹
Kd [6]: 6.19 nM
koff [6]: 0.00135 s⁻¹
kon [6]: 218000 M⁻¹ s⁻¹
EC50 [7]: 4.02 nM
EC50 [8]: 2.28 nM
Kd [9]: 21 nM
koff [9]: 0.00165 s⁻¹
kon [9]: 78800 M⁻¹ s⁻¹
Kd [10]: 36.9 nM
koff [10]: 0.00171 s⁻¹
kon [10]: 46300 M⁻¹ s⁻¹
EC50 [11]: 0.467 nM
EC50 [12]: 4.25 nM
EC50 [13]: 0.509 nM
EC50 [14]: 0.429 nM
Kd [15]: 18.4 nM
koff [15]: 0.00155 s⁻¹
kon [15]: 125000 M⁻¹ s⁻¹
B6: SI-1X4.2 (bispecific antibody)
heavy: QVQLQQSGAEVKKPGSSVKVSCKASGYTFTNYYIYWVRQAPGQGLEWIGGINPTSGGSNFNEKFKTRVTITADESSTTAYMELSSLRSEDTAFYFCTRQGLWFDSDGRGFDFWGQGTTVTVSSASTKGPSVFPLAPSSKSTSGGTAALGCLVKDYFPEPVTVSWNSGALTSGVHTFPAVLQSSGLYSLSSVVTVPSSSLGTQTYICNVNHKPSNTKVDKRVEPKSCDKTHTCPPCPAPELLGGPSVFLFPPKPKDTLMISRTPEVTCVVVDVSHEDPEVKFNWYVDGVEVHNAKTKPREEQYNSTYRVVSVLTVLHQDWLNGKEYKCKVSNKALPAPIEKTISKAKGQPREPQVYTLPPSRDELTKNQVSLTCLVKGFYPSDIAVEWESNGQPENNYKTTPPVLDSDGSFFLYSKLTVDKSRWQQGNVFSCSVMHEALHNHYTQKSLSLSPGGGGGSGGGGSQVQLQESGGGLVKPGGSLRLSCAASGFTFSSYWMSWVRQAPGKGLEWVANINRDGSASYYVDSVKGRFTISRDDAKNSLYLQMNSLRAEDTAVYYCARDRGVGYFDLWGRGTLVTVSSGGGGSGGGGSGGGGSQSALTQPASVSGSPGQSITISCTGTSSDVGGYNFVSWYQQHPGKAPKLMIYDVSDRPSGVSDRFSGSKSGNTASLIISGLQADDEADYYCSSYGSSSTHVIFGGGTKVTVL
light: B5 light
notes: Tetravalent: anti-EGFR (1C5.2) IgG1 with anti-HER3 scFv
